B1: Phytosulfokine receptor 1 (Daucus carota), Q8LPB4 (parent)
chain: MGVLRVYVILILVGFCVQIVVVNSQNLTCNSNDLKALEGFMRGLESSIDGWKWNESSSFSSNCCDWVGISCKSSVSLGLDDVNESGRVVELELGRRKLSGKLSESVAKLDQLKVLNLTHNSLSGSIAASLLNLSNLEVLDLSSNDFSGLFPSLINLPSLRVLNVYENSFHGLIPASLCNNLPRIREIDLAMNYFDGSIPVGIGNCSSVEYLGLASNNLSGSIPQELFQLSNLSVLALQNNRLSGALSSKLGKLSNLGRLDISSNKFSGKIPDVFLELNKLWYFSAQSNLFNGEMPRSLSNSRSISLLSLRNNTLSGQIYLNCSAMTNLTSLDLASNSFSGSIPSNLPNCLRLKTINFAKIKFIAQIPESFKNFQSLTSLSFSNSSIQNISSALEILQHCQNLKTLVLTLNFQKEELPSVPSLQFKNLKVLIIASCQLRGTVPQWLSNSPSLQLLDLSWNQLSGTIPPWLGSLNSLFYLDLSNNTFIGEIPHSLTSLQSLVSKENAVEEPSPDFPFFKKKNTNAGGLQYNQPSSFPPMIDLSYNSLNGSIWPEFGDLRQLHVLNLKNNNLSGNIPANLSGMTSLEVLDLSHNNLSGNIPPSLVKLSFLSTFSVAYNKLSGPIPTGVQFQTFPNSSFEGNQGLCGEHASPCHITDQSPHGSAVKSKKNIRKIVAVAVGTGLGTVFLLTVTLLIILRTTSRGEVDPEKKADADEIELGSRSVVLFHNKDSNNELSLDDILKSTSSFNQANIIGCGGFGLVYKATLPDGTKVAIKRLSGDTGQMDREFQAEVETLSRAQHPNLVHLLGYCNYKNDKLLIYSYMDNGSLDYWLHEKVDGPPSLDWKTRLRIARGAAEGLAYLHQSCEPHILHRDIKSSNILLSDTFVAHLADFGLARLILPYDTHVTTDLVGTLGYIPPEYGQASVATYKGDVYSFGVVLLELLTGRRPMDVCKPRGSRDLISWVLQMKTEKRESEIFDPFIYDKDHAEEMLLVLEIACRCLGENPKTRPTTQQLVSWLENIDVSS
partner: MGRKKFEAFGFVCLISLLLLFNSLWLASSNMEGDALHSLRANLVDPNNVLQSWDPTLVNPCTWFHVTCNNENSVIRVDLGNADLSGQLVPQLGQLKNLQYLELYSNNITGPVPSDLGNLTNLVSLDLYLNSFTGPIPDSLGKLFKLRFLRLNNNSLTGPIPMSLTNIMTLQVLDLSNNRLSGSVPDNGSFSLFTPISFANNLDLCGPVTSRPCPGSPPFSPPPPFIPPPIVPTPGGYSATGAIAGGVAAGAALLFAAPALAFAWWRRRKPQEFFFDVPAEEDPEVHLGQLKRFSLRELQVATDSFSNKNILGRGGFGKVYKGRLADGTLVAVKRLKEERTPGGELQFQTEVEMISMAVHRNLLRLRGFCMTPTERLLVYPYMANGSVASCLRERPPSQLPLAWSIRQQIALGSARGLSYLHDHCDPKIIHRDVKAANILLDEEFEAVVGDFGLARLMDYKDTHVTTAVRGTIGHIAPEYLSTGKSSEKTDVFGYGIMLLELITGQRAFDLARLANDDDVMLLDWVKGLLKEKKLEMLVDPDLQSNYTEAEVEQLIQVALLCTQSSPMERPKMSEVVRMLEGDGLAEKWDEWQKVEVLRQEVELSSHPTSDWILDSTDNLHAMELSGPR
B2: Somatic embryogenesis receptor kinase 2 (Arabidopsis thaliana (Mouse-ear cress)), Q9XIC7 (parent)
chain: B1 partner
partner: B1 chain

Variants of: B1
Settings: with serk2_arath SERK2, Q9XIC7

| Variant | effect of a mutation on the interaction |
| --- | --- |
| T629Y | disrupting interaction strength |
| S608Y | disrupting interaction strength |
| F606D | disrupting interaction strength |

Variants of: B2
Settings: with pskr1_dauca PSKR

| Variant | effect of a mutation on the interaction |
| --- | --- |
| T62Y | disrupting interaction strength |

— IntAct's records for PubMed 26308901
